Data as given in the supplement of paper PMC10065799, “High-throughput profiling of sequence recognition by tyrosine kinases and SH2 domains using bacterial peptide display” (eLife, 2023).

What was measured:
[1] = biological target: c-Src SH2; assay: SH2 binding enrichment of the phosphorylated peptide, bacterial display (enrichment ratio); higher = better substrate or ligand; peptides without Tyr show the background
[2] = biological target: Grb2 SH2 (UniProt P62993); assay: as above
[3] = biological target: SHP2-C SH2; assay: as above
[4] = biological target: Hck (UniProt P08631); assay: phosphorylation enrichment, bacterial display (enrichment ratio); higher = better substrate or ligand; peptides without Tyr show the background
[5] = tested on: AncSZ; assay: as above
[6] = biological target: EPHB1 (UniProt P54762); assay: as above
[7] = biological target: Fyn (UniProt P06241); assay: as above
[8] = biological target: MERTK (UniProt Q12866); assay: as above
[9] = biological target: FGFR3 (UniProt P22607); assay: as above
[10] = tested on: c-Src; assay: as above
[11] = biological target: Jak2 (UniProt O60674); assay: as above
[12] = tested on: c-Abl (mouse); assay: as above
[13] = biological target: FGFR1 (UniProt P11362); assay: as above
[14] = biological target: EPHB2 (UniProt P29323); assay: as above
[15] = biological target: Fes (UniProt P07332); assay: as above
[16] = tested on: Fer (mouse); assay: as above
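Wherever SH2 binding enrichment of the phosphorylated peptide, bacterial display is given: peptide library displayed on the E. coli surface as eCPX fusions, selected cells deep-sequenced, score is each peptide's frequency after selection divided by its frequency in the input.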
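Wherever phosphorylation enrichment, bacterial display is given: 11-residue human phosphosite peptides and single-mutation variants displayed on the E. coli surface, counted by deep sequencing, each peptide's frequency after selection divided by its frequency in the unselected input library; frequency after pTyr selection over input frequency; kinase dosed for 20-30% of maximal phosphorylation in three min.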

FGFR1, sequence (P11362 whole entry, looked up): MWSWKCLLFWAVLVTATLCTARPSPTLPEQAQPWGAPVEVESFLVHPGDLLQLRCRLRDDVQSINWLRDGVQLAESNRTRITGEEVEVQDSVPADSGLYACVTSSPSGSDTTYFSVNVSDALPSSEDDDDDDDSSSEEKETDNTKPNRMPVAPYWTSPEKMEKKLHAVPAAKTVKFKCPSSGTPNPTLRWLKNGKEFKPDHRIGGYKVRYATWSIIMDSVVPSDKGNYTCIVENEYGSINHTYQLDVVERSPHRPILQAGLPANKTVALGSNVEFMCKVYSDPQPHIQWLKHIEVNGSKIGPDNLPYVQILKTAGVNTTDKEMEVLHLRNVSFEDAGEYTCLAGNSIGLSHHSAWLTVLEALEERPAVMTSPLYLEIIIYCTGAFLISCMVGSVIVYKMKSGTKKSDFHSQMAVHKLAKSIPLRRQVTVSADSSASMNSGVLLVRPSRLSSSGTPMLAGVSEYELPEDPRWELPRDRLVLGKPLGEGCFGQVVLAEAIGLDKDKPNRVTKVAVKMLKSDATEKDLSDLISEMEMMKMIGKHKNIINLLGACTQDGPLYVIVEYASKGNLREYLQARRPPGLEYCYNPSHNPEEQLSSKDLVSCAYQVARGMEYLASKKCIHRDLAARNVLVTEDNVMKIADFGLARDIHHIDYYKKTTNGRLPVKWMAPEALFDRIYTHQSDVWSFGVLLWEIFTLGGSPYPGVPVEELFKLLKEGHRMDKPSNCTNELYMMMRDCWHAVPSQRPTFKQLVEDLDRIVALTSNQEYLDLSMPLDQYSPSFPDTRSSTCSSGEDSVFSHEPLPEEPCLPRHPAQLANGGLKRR
Fyn, sequence (P06241 whole entry, looked up): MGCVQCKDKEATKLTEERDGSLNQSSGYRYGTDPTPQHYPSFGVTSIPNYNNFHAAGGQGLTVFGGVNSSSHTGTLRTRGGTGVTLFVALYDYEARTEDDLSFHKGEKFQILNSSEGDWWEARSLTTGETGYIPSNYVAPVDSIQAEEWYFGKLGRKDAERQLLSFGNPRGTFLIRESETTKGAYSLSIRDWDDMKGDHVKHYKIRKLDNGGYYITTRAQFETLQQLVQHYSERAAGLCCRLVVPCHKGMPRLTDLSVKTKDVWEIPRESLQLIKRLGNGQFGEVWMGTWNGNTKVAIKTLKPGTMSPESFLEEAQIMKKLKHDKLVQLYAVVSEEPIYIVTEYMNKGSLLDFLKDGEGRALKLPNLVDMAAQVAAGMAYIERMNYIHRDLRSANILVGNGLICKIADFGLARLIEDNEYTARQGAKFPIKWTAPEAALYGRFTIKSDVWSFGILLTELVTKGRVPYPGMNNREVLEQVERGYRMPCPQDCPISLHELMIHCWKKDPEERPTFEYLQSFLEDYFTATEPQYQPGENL
Grb2 SH2, sequence (P62993 whole entry, looked up): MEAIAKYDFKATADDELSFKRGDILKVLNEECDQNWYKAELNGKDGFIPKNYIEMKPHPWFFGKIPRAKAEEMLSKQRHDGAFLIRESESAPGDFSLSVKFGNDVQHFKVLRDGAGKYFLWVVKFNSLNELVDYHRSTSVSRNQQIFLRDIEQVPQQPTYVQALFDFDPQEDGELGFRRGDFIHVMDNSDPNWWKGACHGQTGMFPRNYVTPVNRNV
Jak2, sequence (O60674 whole entry, looked up): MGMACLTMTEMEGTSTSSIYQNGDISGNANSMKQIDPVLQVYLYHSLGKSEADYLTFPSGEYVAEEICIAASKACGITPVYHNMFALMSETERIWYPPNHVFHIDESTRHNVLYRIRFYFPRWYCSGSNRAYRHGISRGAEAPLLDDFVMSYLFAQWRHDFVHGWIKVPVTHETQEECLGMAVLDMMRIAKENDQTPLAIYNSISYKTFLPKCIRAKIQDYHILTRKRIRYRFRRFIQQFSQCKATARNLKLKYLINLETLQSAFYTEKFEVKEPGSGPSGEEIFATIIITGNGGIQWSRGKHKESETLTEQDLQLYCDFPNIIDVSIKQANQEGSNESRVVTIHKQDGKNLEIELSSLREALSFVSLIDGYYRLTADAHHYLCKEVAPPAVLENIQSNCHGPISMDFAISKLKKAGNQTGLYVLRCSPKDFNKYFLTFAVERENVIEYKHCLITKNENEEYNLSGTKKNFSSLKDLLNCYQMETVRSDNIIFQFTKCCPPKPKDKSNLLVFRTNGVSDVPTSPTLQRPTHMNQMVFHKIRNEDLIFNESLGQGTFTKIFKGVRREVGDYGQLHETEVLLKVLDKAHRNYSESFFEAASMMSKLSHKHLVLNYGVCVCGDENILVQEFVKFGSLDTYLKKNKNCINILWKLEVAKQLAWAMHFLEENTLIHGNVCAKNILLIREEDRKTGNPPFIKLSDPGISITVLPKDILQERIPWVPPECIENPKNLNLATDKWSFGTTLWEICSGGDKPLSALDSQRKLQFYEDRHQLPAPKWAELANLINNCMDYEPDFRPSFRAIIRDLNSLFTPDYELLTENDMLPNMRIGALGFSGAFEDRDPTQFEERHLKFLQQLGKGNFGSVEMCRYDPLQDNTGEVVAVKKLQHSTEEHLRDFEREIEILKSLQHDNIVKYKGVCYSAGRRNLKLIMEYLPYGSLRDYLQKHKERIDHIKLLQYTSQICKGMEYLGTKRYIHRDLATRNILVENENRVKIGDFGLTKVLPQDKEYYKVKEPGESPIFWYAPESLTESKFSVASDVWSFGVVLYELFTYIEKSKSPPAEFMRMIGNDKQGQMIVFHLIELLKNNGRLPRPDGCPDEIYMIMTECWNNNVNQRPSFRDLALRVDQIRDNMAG
FGFR3, sequence (P22607 whole entry, looked up): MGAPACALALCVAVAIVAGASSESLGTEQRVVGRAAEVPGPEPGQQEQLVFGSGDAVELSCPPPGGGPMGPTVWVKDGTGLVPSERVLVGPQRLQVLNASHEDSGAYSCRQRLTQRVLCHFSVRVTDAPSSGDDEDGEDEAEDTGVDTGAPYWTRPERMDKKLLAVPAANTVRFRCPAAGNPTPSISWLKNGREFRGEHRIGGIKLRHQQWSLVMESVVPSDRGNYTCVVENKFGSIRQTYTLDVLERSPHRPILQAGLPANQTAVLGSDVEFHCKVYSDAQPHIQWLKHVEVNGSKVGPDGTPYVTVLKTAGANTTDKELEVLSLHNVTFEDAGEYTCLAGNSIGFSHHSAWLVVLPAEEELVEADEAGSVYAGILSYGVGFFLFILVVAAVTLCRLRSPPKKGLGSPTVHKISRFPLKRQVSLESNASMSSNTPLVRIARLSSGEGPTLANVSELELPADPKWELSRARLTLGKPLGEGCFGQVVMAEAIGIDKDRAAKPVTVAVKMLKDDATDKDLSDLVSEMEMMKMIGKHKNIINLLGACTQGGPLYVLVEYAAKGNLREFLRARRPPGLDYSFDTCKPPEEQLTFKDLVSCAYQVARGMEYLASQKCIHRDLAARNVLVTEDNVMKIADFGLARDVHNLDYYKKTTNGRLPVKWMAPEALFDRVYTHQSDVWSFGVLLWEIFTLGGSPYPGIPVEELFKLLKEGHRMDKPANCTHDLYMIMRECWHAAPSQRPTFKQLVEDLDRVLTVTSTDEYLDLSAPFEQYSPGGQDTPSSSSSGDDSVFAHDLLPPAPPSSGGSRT
Hck, sequence (P08631 whole entry, looked up): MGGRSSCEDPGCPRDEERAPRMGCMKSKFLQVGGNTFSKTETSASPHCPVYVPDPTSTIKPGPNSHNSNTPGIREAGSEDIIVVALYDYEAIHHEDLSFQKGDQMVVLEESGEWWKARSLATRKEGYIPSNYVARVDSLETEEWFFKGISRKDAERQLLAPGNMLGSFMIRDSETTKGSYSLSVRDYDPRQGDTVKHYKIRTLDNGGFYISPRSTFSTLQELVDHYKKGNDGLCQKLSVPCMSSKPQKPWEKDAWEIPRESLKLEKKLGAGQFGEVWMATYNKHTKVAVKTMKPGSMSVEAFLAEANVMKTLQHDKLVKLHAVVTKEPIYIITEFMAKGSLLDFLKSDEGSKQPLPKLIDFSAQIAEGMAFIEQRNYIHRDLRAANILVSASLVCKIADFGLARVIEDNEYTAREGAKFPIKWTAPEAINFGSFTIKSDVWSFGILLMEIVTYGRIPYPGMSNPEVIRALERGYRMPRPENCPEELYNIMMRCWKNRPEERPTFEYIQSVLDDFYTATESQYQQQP
EPHB1, sequence (P54762 whole entry, looked up): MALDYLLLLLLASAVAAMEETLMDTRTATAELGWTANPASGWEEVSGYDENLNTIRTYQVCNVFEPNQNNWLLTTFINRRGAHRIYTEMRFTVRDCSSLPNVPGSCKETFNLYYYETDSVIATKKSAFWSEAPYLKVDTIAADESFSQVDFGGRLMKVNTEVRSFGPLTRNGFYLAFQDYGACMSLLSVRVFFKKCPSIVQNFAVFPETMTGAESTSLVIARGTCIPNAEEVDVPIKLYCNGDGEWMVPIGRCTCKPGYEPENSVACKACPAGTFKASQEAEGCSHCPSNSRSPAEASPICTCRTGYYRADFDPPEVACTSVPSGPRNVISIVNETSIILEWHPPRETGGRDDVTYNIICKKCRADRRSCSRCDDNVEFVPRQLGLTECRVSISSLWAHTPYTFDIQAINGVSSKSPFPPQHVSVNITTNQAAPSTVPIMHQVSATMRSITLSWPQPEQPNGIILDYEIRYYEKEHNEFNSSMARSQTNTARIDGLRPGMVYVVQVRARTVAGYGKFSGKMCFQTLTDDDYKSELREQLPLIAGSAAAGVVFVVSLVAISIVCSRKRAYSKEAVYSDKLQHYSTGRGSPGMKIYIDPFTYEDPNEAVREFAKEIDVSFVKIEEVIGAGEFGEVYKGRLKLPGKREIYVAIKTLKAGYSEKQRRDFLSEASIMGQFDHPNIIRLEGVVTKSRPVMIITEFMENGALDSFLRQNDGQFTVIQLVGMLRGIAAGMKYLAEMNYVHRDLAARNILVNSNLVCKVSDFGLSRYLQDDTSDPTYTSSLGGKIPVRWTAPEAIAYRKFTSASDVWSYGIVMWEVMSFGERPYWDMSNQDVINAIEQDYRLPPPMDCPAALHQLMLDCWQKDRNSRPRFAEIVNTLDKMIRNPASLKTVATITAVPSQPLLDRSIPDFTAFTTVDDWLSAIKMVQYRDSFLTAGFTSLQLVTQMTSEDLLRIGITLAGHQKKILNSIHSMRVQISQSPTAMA

| Sequence | SH2 binding enrichment [1] | SH2 binding enrichment [2] | SH2 binding enrichment [3] | phosphorylation enrichment [4] | phosphorylation enrichment [5] | phosphorylation enrichment [6] | phosphorylation enrichment [7] | phosphorylation enrichment [8] | phosphorylation enrichment [9] | phosphorylation enrichment [10] | phosphorylation enrichment [11] | phosphorylation enrichment [12] | phosphorylation enrichment [13] | phosphorylation enrichment [14] | phosphorylation enrichment [15] | phosphorylation enrichment [16] |
| --- | --- | --- | --- | --- | --- | --- | --- | --- | --- | --- | --- | --- | --- | --- | --- | --- |
| YFCRWYRNQKS [EREG_Y144_R147Q] | 0.275 | 0.712 | 0.545 | 0.372 | 0.565 | 0.481 | 0.447 | 0.523 | 0.548 | 0.477 | 0.371 | 0.444 | 0.473 | 0.385 | 0.48 | 0.454 |
| YFVVEYRNQKP [MUC17_Y4332_D4334N] | 2.83 | 1.58 | 3.19 | 0.605 | 1.72 | 0.931 | 0.842 | 4.22 | 9.02 | 0.836 | 2.32 | 0.722 | 11.1 | 0.842 | 1.36 | 0.738 |
| YGEYRYRSVIK [CFTR_Y517_D513G] | 0.817 | 0.769 | 0.819 | 3.67 | 0.714 | 0.458 | 7.2 | 0.463 | 0.644 | 4.36 | 0.599 | 0.745 | 0.454 | 0.462 | 0.826 | 0.49 |
| YGGLRCGYGVL [KRTAP20-2_Y13_Y13C] | 0.569 | 0.829 | 0.642 | 1.5 | 0.857 | 0.623 | 1 | 0.369 | 0.632 | 1.05 | 0.794 | 0.589 | 0.826 | 0.543 | 1.01 | 0.473 |
| YIIFIYAMKKK [SLCO1B1_Y645_L643F] | 1.23 | 2.31 | 1.68 | 0.473 | 0.602 | 0.273 | 0.343 | 0.849 | 0.507 | 0.287 | 0.545 | 0.465 | 0.655 | 0.239 | 0.536 | 0.433 |
| YKEQGYHRLPS [RIN1_Y681_P686S] | 0.751 | 0.802 | 0.853 | 0.279 | 0.531 | 0.245 | 0.366 | 0.413 | 0.485 | 0.439 | 0.763 | 0.455 | 0.485 | 0.366 | 0.508 | 0.363 |
| YKWAVYCIIGR [NUP93_Y391_R388W] | 1.36 | 2.41 | 1.42 | 1.29 | 1.23 | 3.37 | 1.04 | 0.953 | 0.751 | 1.18 | 1.08 | 0.981 | 0.527 | 1.83 | 1.48 | 0.646 |
| YMRGMYFRMTD [PLA2G6_Y541_K545T] | 1.2 | 0.959 | 1.83 | 0.578 | 1.21 | 0.63 | 0.434 | 0.773 | 0.908 | 0.427 | 1.41 | 0.771 | 0.592 | 0.566 | 1.16 | 0.481 |
| YPKAHYHWLVL [APTX_Y214_R213H] | 1.2 | 1.6 | 1.43 | 0.501 | 0.823 | 0.505 | 0.368 | 0.61 | 1.94 | 0.487 | 1.16 | 0.846 | 2.54 | 0.482 | 1.15 | 0.571 |
| YPPTHYIRRVP [SLC4A11_Y820] | 0.443 | 0.675 | 0.596 | 0.369 | 0.754 | 0.407 | 0.444 | 0.469 | 0.43 | 0.449 | 0.76 | 0.601 | 0.448 | 0.492 | 0.678 | 0.346 |
| YQGGTYSKAST [FGG_Y380] | 0.716 | 0.846 | 0.557 | 0.424 | 0.867 | 0.33 | 0.449 | 0.43 | 0.43 | 0.424 | 0.373 | 0.388 | 0.423 | 0.419 | 0.526 | 0.387 |
| YQLENYCNGGG [INS_Y108] | 0.76 | 0.862 | 0.697 | 0.568 | 0.768 | 0.686 | 0.57 | 0.426 | 0.477 | 0.455 | 0.461 | 0.473 | 0.536 | 0.572 | 0.812 | 0.55 |
| YQNGMYGLHQD [SGSH_Y89_H84Y] | 1.11 | 5.48 | 0.585 | 1 | 0.874 | 0.487 | 0.751 | 0.566 | 0.631 | 0.957 | 0.712 | 0.748 | 0.605 | 0.687 | 0.808 | 0.55 |
| YRQNGYIPGSN [PCDHGA1_Y895_V894G] | 0.452 | 0.846 | 0.896 | 0.405 | 0.485 | 0.381 | 0.384 | 0.405 | 0.439 | 0.422 | 0.467 | 0.47 | 0.399 | 0.404 | 0.547 | 0.423 |
| YSKDIYKRVTG [PANK2_Y405_N404I] | 0.487 | 0.813 | 0.612 | 0.487 | 0.5 | 0.38 | 0.415 | 0.401 | 0.342 | 0.394 | 0.447 | 0.435 | 0.409 | 0.419 | 0.51 | 0.551 |
| YSMGCYEFSLG [HMGCL_Y198_I200F] | 0.701 | 0.8 | 0.864 | 1.25 | 2.47 | 1.52 | 2.12 | 3.64 | 1.37 | 2.37 | 1.06 | 0.864 | 1.23 | 1.37 | 1.39 | 4.95 |
| YYSSEYHCVGG [CTSC_Y345_Y347C] | 0.834 | 0.726 | 0.576 | 2.58 | 3.84 | 7.69 | 2.49 | 8.36 | 9.28 | 3.66 | 3.05 | 6.69 | 11.5 | 8.59 | 1.04 | 1.26 |
